Target: T1, OX40 receptor on mouse CD4+ T-cells (mouse, UniProt P47741 20-272)
T1 sequence (looked up): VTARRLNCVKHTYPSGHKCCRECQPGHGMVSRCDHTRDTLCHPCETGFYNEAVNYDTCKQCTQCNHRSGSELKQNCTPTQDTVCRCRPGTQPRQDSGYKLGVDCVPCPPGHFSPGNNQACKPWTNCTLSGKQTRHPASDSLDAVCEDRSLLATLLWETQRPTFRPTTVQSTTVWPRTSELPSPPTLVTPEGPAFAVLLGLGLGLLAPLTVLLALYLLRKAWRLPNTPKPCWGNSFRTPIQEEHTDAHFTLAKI
Experiment: cell-based or functional assay

B1: murine OX40L polypeptide expressed from mOX40L_miR122 mRNA (SEQ ID NO: 66) on the surface of B16F10 cells (ligand)
chain: MEGEGVQPLDENLENGSRPRFKWKKTLRLVVSGIKGAGMLLCFIYVCLQLSSSPAKDPPIQRLRGAVTRCEDGQLFISSYKNEYQTMEVQNNSVVIKCDGLYIIYLKGSFFQEVKIDLHFREDHNPISIPMLNDGRRIVFTVVASLAFKDKVYLTVNAPDTLCEHLQINDGELIVVQLTPGYCAPEGSYHSTVNQVPL
mouse IL-2 production by CD4+ T-cells (IL-2 ELISA), fold over mock-treated or non-translated mRNA control (about 6 ng/ml): ~2 fold

Source: patent US20230359371A1 (MODERNATX, published 2023)
